B1: sp¦Q9ERI2¦RB27A_MOUSE (protein, UniProt Q9ERI2 2-221, looked up)
Ras-related protein Rab-27A: SDGDYDYLIKFLALGDSGVGKTSVLYQYTDGKFNSKFITTVGIDFREKRVVYRANGPDGAVGRGQRIHLQLWDTAGQERFRSLTTAFFRDAMGFLLLFDLTNEQSFLNVRNWISQLQMHAYCENPDIVLCGNKSDLEDQRAVKEEEARELAEKYGIPYFETSAANGTNISHAIEMLLDLIMKRMERCVDKSWIPEGVVRSNGHTSADQLSEEKEKGLCGC
B2: sp¦Q8K4I3¦ARHG6_MOUSE (protein, UniProt Q8K4I3 1-771, looked up)
Rho guanine nucleotide …: MNPEERLVTWLISLGVLESPKKTVCDPEEFLKSSLKNGVVLCKLINRLLPGSVEKYCLEPQTEADCIDNINDFLKGCATLQVEVFEPDDLYSGANFSKVLNTLLAVNKATEDQLSERPCGRSSSLSAATSSQTNPQVAVPSTAPEQHSEEKAEMTENGSHQLIVKARFNFKQTNEDELSVCKGDIIYVTRVEEGGWWEGTLNGRTGWFPSNYVREIKPSERPLSPKAIKGFDTAPLTKNYYTVVLQNILDTEKEYAKELQSLLVTYLRPLQSNNNLSTVEFTCLLGNFEEVCTFQQTLCQALEECSKFPENQHKVGGCLLNLMPHFKSMYLAYCANHPSAVNVLTQHSDDLERFMENQGASSPGILILTTSLSKPFMRLEKYVTLLQELERHMEDTHPDHQDILKAIIAFKTLMGQCQDLRKRKQLELQILSEPIQAWEGDDIKTLGNVIFMSQVVMQHGACEEKEERYFLLFSSVLIMLSASPRMSGFMYQGKIPIAGMVVNRLDEIEGSDCMFEITGSTVERIVVHCNNNQDFQEWMEQLNRLTKGPTSCGSLSKTSSSSCSTHSSFSSTGQPRGPLEPPQIIKPWSLSCLRPAPPLRPSAALGYKERMSYILKESSKSPKTMKKFLHKRKTERKASEEEYVIRKSTAALEEDAQILKVIEAYCTSASFQQGTRKDSVPQVLLPEEEKLIIEETRSNGQTIIEEKSLVDTVYALKDEVKELKQENKKMKQCLEEELKSRKDLEKLVRKLLKQTDECIRSESSSKTSILQ
B3: sp¦P05532¦KIT_MOUSE (protein, UniProt P05532 25-979, looked up)
Mast/stem cell growth factor …: SQPSASPGEPSPPSIHPAQSELIVEAGDTLSLTCIDPDFVRWTFKTYFNEMVENKKNEWIQEKAEATRTGTYTCSNSNGLTSSIYVFVRDPAKLFLVGLPLFGKEDSDALVRCPLTDPQVSNYSLIECDGKSLPTDLTFVPNPKAGITIKNVKRAYHRLCVRCAAQRDGTWLHSDKFTLKVRAAIKAIPVVSVPETSHLLKKGDTFTVVCTIKDVSTSVNSMWLKMNPQPQHIAQVKHNSWHRGDFNYERQETLTISSARVDDSGVFMCYANNTFGSANVTTTLKVVEKGFINISPVKNTTVFVTDGENVDLVVEYEAYPKPEHQQWIYMNRTSANKGKDYVKSDNKSNIRYVNQLRLTRLKGTEGGTYTFLVSNSDASASVTFNVYVNTKPEILTYDRLINGMLQCVAEGFPEPTIDWYFCTGAEQRCTTPVSPVDVQVQNVSVSPFGKLVVQSSIDSSVFRHNGTVECKASNDVGKSSAFFNFAFKGNNKEQIQAHTLFTPLLIGFVVAAGAMGIIVMVLTYKYLQKPMYEVQWKVVEEINGNNYVYIDPTQLPYDHKWEFPRNRLSFGKTLGAGAFGKVVEATAYGLIKSDAAMTVAVKMLKPSAHLTEREALMSELKVLSYLGNHMNIVNLLGACTVGGPTLVITEYCCYGDLLNFLRRKRDSFIFSKQEEQAEAALYKNLLHSTEPSCDSSNEYMDMKPGVSYVVPTKTDKRRSARIDSYIERDVTPAIMEDDELALDLDDLLSFSYQVAKGMAFLASKNCIHRDLAARNILLTHGRITKICDFGLARDIRNDSNYVVKGNARLPVKWMAPESIFSCVYTFESDVWSYGIFLWELFSLGSSPYPGMPVDSKFYKMIKEGFRMVSPEHAPAEMYDVMKTCWDADPLKRPTFKQVVQLIEKQISDSTKHIYSNLANCNPNPENPVVVDHSVRVNSVGSSASSTQPLLVHEDA
B4: sp¦Q922B6¦TRAF7_MOUSE (protein, UniProt Q922B6 1-594, looked up)
E3 ubiquitin-protein ligase …: MPPINTPRRSDSAISVRSLHSESSMSLRSTFSLPEEEEEPEPLVFAEQPSVKLCCQLCCSVFKDPVITTCGHTFCRRCALKSEKCPVDNAKLTVVVNNIAVAEQIGELFIHCRHGCHAAGTGKPGVFEVDPRGCPFTIKLSARKDHESSCDYRPVRCPNNPSCPPLLKMNLEAHLKECEHIKCPHSKYGCTFIGNQDTYETHLETCRFEGLKEFLQQTDDRFHEMHVALAQKDQEIAFLRSMLGKLSEKIDQLEKSLELKFDVLDENQSKLSEDLMEFRRDASMLNDELSHINARLNMGILGSYDPQQIFKCKGTFVGHQGPVWCLCVYSMGDLLFSGSSDKTIKVWDTCTTYKCQKTLEGHDGIVLALCIQGCKLYSGSADCTIIVWDIQNLQKVNTIRAHDNPVCTLVSSHNMLFSGSLKAIKVWDIVGTELKLKKELTGLNHWVRALVAAQSYLYSGSYQTIKIWDIRTLDCIHVLQTSGGSVYSIAVTNHHIVCGTYENLIHVWDIESKEQVRTLTGHVGTVYALAVISTPDQTKVFSASYDRSLRVWSMDNMICTQTLLRHQGSVTALAVSRGRLFSGAVDSTVKVWTC
B5: sp¦Q3TBL6¦TP8L3_MOUSE (protein, UniProt Q3TBL6 1-204, looked up)
Tumor necrosis factor …: MDSDSGEQSEGEPGTAAGPHVFSSKNLALQAQKKILSKIASKTVANMLIDDTSSEIFDELYKVTEIHTHNKKEAHKIMKDAIKVAIKIGILYRNKQFSQEEVIIVEKLRKKLNQTAMTMVSFYEVEYTFDTNVLSKLLHECKDLVHELVQRHLTPRTHGRINHVFNHFADVEFLSTLYGPHGNCRPNLKRICEGINKLLDDKIL
B6: sp¦P06802¦ENPP1_MOUSE (protein, UniProt P06802 1-906, looked up)
Ectonucleotide …: MERDGDQAGHGPRHGSAGNGRELESPAAASLLAPMDLGEEPLEKAERARPAKDPNTYKVLSLVLSVCVLTTILGCIFGLKPSCAKEVKSCKGRCFERTFSNCRCDAACVSLGNCCLDFQETCVEPTHIWTCNKFRCGEKRLSRFVCSCADDCKTHNDCCINYSSVCQDKKSWVEETCESIDTPECPAEFESPPTLLFSLDGFRAEYLHTWGGLLPVISKLKNCGTYTKNMRPMYPTKTFPNHYSIVTGLYPESHGIIDNKMYDPKMNASFSLKSKEKFNPLWYKGQPIWVTANHQEVKSGTYFWPGSDVEIDGILPDIYKVYNGSVPFEERILAVLEWLQLPSHERPHFYTLYLEEPDSSGHSHGPVSSEVIKALQKVDRLVGMLMDGLKDLGLDKCLNLILISDHGMEQGSCKKYVYLNKYLGDVNNVKVVYGPAARLRPTDVPETYYSFNYEALAKNLSCREPNQHFRPYLKPFLPKRLHFAKSDRIEPLTFYLDPQWQLALNPSERKYCGSGFHGSDNLFSNMQALFIGYGPAFKHGAEVDSFENIEVYNLMCDLLGLIPAPNNGSHGSLNHLLKKPIYNPSHPKEEGFLSQCPIKSTSNDLGCTCDPWIVPIKDFEKQLNLTTEDVDDIYHMTVPYGRPRILLKQHHVCLLQQQQFLTGYSLDLLMPLWASYTFLRNDQFSRDDFSNCLYQDLRIPLSPVHKCSYYKSNSKLSYGFLTPPRLNRVSNHIYSEALLTSNIVPMYQSFQVIWHYLHDTLLQRYAHERNGINVVSGPVFDFDYDGRYDSLEILKQNSRVIRSQEILIPTHFFIVLTSCKQLSETPLECSALESSAYILPHRPDNIESCTHGKRESSWVEELLTLHRARVTDVELITGLSFYQDRQESVSELLRLKTHLPIFSQED

System: hippocampal proteins
Assay: DIA quantification proteomics, hippocampus of Mdga2+/- vs WT mice
Parameters: species or system mouse
Details: Mdga2+/- vs WT mouse hippocampus (HET-HIP-VS-WT-HIP); S3 Table, downregulated DEPs; SE, pvalue and adj_pvalue in own columns c3-c5
Procedure, shortened: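 Hippocampi from 1.5–2-month-old male Mdga2+/− mice and WT littermates; 100 μg protein trypsin-digested, peptides high-pH fractionated. DDA-built spectral library, DIA by nano-LC–MS/MS with Spectronaut and mProphet QC. DEPs called at fold change >1.1 and p <0.05.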

Molecule	log2FC
B1	-2.259
B2	-1.975
B3	-2.731
B4	-2.686
B5	-2.713
B6	-2.366

Same assay, conditions: regulation class of the protein, HET-HIP-VS-WT-HIP; S3 Table, downregulated DEPs

Molecule	Class
B1	Down
B2	Down
B3	Down
B4	Down
B5	Down
B6	Down

Source: paper PMC11960969, “Mdga2 deficiency leads to an aberrant activation of BDNF/TrkB signaling that underlies autism-relevant synaptic and behavioral changes in mice” (PLOS Biology, 2025)
